Data from paper doi:10.1101/557751.

Legend:
Experiment in all cases: EMSA
[1] = target: T1, CsiR (Pseudomonas putida (KT2440?)) (UniProt Q88IU1)
T1 sequence: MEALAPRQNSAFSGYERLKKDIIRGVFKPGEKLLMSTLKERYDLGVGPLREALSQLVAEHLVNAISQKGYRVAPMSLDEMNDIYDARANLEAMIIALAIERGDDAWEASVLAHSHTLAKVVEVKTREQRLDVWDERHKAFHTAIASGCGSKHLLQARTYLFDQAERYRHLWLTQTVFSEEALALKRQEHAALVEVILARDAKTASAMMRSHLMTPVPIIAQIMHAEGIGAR

[2] = target: T2, GcdR (Pseudomonas putida (KT2440?)) (UniProt Q88RH3)
T2 sequence: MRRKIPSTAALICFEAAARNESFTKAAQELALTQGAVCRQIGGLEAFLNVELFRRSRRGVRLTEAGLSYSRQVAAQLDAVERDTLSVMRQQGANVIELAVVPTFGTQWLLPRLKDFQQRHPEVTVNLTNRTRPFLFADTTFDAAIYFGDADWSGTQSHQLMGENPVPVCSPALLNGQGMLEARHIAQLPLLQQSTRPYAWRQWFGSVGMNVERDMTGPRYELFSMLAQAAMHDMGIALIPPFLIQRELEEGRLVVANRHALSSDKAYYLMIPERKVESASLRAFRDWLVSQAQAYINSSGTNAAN

[3] = tested on: CsiR (Pseudomonas putida (KT2440?))
[4] = tested on: GcdR (Pseudomonas putida (KT2440?))

Question: With “AGTTCGATCTGCGTAAAGGCGTTCATGGCAGTGTCCTGGCTAAAAAAGTAGATGGCGCCGTCCGGTCATGACCTGGATCAGTGCGGGCGAGGTAAAAATATCGCCACTAACTGAAAATGTCTACATTTTTATTTTTCAACGACACTACTCGTGTTTGTCCATTGTTTTTCGTCAGCAGAGGGTTTCGGTATGATCGGCAAAACGTTTTGAGGAACAGGATCTTGGAAGCGCTCGCCCCCCGACAAAACTCAGCATTCAGCGGG (double strand) [csiR-csiD intergenic probe]” as the substance, how does the Kd [1] read?
Answer: 30 nM

Question: “CGGGTCGATCCAGTTGAAACTTGCTTTACCGACCATGAGCGAATCCTCGAAATAGGGGTCAGTTTCTTGTGCCTTTGAGCCTAGGCCTGATCGGCTGCGGCGACAAACGAGGATTGCGCACCGATTAGTGATATTTTGTCACTCCGTAAATCGGCAAAACGCCTTATTGACAGCCTTACAAGTGAGGTTGACGTACATGC (double strand) [gcdR intergenic probe]” was tested. Which Kd [2] did it give?
Answer: 62.5 nM

Question: csiR-csiD intergenic probe was tested. Which Kd [3] did it give?
Answer: 30 nM

Question: With gcdR intergenic probe as the substance, how does the Kd [4] read?
Answer: 62.5 nM
